How the values were obtained:
Format in all cases: cell-based
[1] = tested on: IL-4 promoter; assay: IL-4-CAT reporter assay in HepG2 cells; settings: NIP45 together with NFATp and c-Maf
Description: FIG. 9 depicts CAT assay results (left) and a bar graph quantitating the relative fold induction of CAT activity (right) in HepG2 cells transfected with an IL-4-CAT reporter gene, construct (extending to −732 bp of the IL-4 promoter) and combinations of NFATp, NIP45 and/or c-Maf expression constructs, as indicated.
Although a reporter construct containing multiple copies of the NFAT binding site provides a sensitive method for measuring transactivation by NFAT and NIP45, it was determined if NIP45 was functional in the context of a native NFAT-dependent promoter. IL-4 expression is highly tissue specific and restricted to the Th2 subset of T cells and to mast cells. […] Thus, the IL-4 promoter is not active in the HepG2 cell line but can be activated by the introduction of NFATp and c-maf. In cotransfection experiments carried out as described above, HepG2 cells were transfected with an IL-4-CAT reporter construct (extending to −732 bp of the IL-4 promoter) and expression vectors or controls for NIP45, NFATp and c-Maf. The controls for NIP45 was a frame shift mutant at amino acid 13. Controls for NFATp and c-Maf were the empty expression vectors pREP4 and pMEX respectively (Ho, I. C. et al. (1996) Cell 85:973-983). The results of these experiments are shown in FIG. 9 (representative CAT assays and bar graphs are depicted as in FIG. 8).

[2] = tested on: M12 B lymphoma cells; assay: Endogenous IL-4 production by transfected M12 B lymphoma cells (ELISA); settings: M12 cells cotransfected with NFATp and c-Maf; supernatants at 72 hours
Description: FIG. 10 is a bar graph depicting the level of IL-4 (in pg/ml) in the supernatants of M12 B lymphoma cells transiently cotransfected with expression plasmids for NFATp, c-Maf and a pCI vector control (top bar) or expression plasmids for NFATp, c-Maf and NIP45 (bottom bar).
M12 cells were transiently transfected by electroporation as previously described (Ho, I. C. et al. (1996) Cell 85:973-983) by incubating 3×10^6 cells in 0.4 ml of PBS with 5 μg of each plasmid for 10 minutes at room temperature prior to electroporation at 975 μF, 280 V. Levels of IL-4 in the supernatants harvested 72 hours later were measured by a commercially available IL-4 ELISA (Pharmingen), performed according to the manufacturer's instructions except with modification as described (Ho, I. C. et al. (1996) supra). Four independent sets of transient transfections were done and assayed for secretion of IL-4 into the culture supernatant. For each set of transfections, inclusion of NIP45 led to a dramatic increase in IL-4 production.

[3] = tested on: 3X NFAT-CAT reporter; assay: 3X NFAT-CAT reporter assay in HepG2 cells
Source text: FIG. 8 depicts CAT assay results (left) and a bar graph quantitating the relative fold induction of CAT activity (right) in HepG2 cells transfected with a 3X NFAT-CAT reporter gene construct (containing three NFAT binding sites) and either a control expression plasmid or an NFAT family expression plasmid (NFATp, NFATc, NFAT3 or NFAT4), alone (−) or in combination with a NIP45 expression plasmid (^+).
To test for a functional role of NIP45 in NFAT-driven transcription, NIP45 was expressed at high levels in HepG2 cells. […] HepG2 cells were transfected with a 3X NFAT-CAT reporter from the IL-2 gene (Venkataraman, L. et al. (1994) Immunity 1:189-196) and control or expression plasmids for a NIP45 and NFAT family members (NFATp, NFATc, NFAT3, NFAT4). HepG2 cells were transfected by the DEAE-Dextran method as described in Hoey, T. et al. (1995) supra, and CAT assays were performed according to standard methodologies. One representative assay for each combination is shown adjacent to a bar graph representing relative CAT activity for each group. Fold induction was calculated by normalizing the CAT activity of cells transfected with the CAT reporter and each parental expression vector to one. Values represent the relative level of CAT expression above this control transfection. All transfections were performed at least three times with one representative autoradiograph shown.

B1: NIP45: 45 Kd NFAT interacting protein of 412 amino acids (SEQ ID NO: 2), expressed from a transfected expression plasmid (protein, listed as Mus musculus)
chain: MAEPLRGRGPRSRGGRGARRARGARGRCPRARQSPARLIPDTVLVDLVSDSDEEVLEVADPVEVPVARLPAPAKPEQDSDSDSEGAAEGPAGAPRTLVRRRRRRLLDPGEAPVVPVYSGKVQSSLNLIPDNSSLLKLCPSEPEDEADLTNSGSSPSEDDALPSGSPWRKKLRKKCEKEEKKMEEFPDQDISPLPQPSSRNKSRKHTEALQKLREVNKRLQDLRSCLSPKQHQSPALQSTDDEVVLVEGPVLPQSSRLFTLKIRCRADLVRLPVRMSEPLQNVVDHMANHLGVSPNRILLLFGESELSPTATPSTLKLGVADIIDCVVLASSSEATETSQELRLRVQGKEKHQMLEISLSPDSPLKVLMSHYEEAMGLSGHKLSFFFDGTKLSGKELPADLGLESGDLIEVWG
- increase in activity of the IL-4 promoter relative to NFATp and c-Maf alone [1]: 9 fold
- endogenous IL-4 production relative to cells that did not receive NIP45 [2]: 50-200 fold
- increase in CAT activity over vector alone ([3]; NIP45 cotransfected with NFATp): 25-30 fold
- increase in CAT activity relative to transfection with NFATp alone ([3]; NIP45 cotransfected with NFATp): 4-5 fold
- CAT expression from 3X NFAT-CAT reporter ([3]; NIP45 transfected alone): did not lead to a significant increase
